Consider one molecule from PMC9935389, “Structural insights into the regulation of Cas7-11 by TPR-CHAT”.

For the data set, the target named is DmCas7-11;DmTPR-CHAT full-length (Desulfonema magnum;Desulfonema magnum, UniProt A0A975GRY4;A0A975BRS1 1-1785;1-822, |). The data set can be described thus: cryo-EM; Craspase complex with full TPR-CHAT, 3.2 A; PDB 7ZOL or 7ZOQ (assignment not stated); EMSA: 32.5 mM HEPES-NaOH pH 7.5, 100 mM NaCl, 2.5 mM DTT, 1 U/ul RNase inhibitor, 50 nM RNA, 30 min on ice; no Mg2+ listed. Particulars: protein: recombinant;recombinant; tags: 6xHis (N-terminal);Twin-Strep (N-terminal); copies: 1;1; single strand.
Sequence of DmCas7-11;DmTPR-CHAT full-length (chain, as listed by the source |, chain 1 of 2): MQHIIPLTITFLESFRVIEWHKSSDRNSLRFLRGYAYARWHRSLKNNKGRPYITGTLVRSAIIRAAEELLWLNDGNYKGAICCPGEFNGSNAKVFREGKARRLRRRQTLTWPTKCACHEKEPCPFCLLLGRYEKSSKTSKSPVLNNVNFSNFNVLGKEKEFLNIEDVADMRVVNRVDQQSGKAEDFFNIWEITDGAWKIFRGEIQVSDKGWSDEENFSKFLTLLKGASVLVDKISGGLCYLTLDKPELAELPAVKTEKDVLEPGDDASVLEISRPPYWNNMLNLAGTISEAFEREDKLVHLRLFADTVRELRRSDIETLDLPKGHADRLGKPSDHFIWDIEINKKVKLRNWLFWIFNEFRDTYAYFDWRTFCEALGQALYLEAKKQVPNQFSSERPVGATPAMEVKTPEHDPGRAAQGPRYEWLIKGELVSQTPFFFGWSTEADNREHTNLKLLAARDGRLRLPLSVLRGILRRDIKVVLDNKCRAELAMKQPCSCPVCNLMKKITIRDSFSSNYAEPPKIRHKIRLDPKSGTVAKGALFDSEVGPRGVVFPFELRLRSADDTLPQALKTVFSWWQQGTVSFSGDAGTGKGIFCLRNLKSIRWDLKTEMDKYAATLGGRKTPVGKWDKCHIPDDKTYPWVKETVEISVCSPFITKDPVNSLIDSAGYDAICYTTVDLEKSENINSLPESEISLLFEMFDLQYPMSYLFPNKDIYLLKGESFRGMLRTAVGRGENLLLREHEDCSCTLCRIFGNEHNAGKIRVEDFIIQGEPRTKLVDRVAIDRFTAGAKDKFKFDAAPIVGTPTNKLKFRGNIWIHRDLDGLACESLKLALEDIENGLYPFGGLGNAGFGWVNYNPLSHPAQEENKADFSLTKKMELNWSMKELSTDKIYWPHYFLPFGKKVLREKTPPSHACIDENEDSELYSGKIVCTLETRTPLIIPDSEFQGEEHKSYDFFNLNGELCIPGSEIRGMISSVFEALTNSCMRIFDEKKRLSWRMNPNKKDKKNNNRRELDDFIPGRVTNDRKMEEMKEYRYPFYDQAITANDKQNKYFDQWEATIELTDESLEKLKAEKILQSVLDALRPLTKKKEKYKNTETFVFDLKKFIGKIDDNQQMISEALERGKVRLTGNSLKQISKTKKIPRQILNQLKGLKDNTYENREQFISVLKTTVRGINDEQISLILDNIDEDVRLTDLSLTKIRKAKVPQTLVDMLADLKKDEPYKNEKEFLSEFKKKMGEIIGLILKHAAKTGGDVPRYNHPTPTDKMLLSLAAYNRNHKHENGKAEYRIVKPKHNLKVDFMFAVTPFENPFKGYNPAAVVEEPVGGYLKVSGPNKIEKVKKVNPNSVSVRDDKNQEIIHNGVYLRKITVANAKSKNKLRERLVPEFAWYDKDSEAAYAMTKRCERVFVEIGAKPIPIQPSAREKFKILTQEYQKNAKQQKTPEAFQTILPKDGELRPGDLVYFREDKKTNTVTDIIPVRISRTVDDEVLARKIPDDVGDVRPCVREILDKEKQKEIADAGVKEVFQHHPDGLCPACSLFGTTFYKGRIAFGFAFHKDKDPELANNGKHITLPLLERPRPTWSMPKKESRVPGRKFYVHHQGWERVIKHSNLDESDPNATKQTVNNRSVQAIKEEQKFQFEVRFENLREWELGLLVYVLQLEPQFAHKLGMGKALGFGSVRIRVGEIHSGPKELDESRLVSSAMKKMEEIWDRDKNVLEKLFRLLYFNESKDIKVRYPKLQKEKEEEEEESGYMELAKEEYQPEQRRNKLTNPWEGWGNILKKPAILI
Sequence of DmCas7-11;DmTPR-CHAT full-length (chain, as listed by the source |, chain 2 of 2): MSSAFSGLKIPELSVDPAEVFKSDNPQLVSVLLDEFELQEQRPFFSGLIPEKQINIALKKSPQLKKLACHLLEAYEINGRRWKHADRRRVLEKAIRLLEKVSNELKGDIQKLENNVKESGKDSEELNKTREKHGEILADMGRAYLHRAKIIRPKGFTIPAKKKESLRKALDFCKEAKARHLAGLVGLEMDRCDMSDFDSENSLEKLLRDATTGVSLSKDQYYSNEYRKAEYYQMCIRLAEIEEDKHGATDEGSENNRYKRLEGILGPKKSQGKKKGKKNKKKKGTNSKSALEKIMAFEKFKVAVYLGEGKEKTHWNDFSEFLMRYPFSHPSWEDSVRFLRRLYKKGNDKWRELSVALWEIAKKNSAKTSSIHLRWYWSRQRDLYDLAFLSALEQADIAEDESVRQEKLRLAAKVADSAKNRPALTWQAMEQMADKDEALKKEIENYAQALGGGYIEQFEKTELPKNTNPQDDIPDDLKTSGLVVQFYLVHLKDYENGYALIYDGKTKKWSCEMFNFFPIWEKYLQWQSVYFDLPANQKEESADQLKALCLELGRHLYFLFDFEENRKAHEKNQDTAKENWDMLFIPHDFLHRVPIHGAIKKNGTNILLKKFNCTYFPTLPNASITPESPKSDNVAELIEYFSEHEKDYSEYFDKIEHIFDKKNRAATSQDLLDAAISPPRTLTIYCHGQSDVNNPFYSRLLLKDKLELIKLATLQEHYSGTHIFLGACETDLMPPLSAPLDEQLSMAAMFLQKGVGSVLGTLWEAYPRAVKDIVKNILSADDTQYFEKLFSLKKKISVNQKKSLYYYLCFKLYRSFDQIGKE

Turning to UUAUGUGAUGGAACCUCUCCGGAUAAUUCUAUCUCUUCUG (ssRNA) [crRNA (13+ nt 5' handle, spacer C15-G40 modelled)], the binding result is given as “binds”.
